The record followed here is patent US20120231467A1.

The series addresses Toxin B, native full-length (270 kDa) (Clostridium difficile) (UniProt P18177). Put plainly: filter. The following applies: 2NapdU at every N (replaces all dT).
UniProt P18177, sequence (P18177 2-2366): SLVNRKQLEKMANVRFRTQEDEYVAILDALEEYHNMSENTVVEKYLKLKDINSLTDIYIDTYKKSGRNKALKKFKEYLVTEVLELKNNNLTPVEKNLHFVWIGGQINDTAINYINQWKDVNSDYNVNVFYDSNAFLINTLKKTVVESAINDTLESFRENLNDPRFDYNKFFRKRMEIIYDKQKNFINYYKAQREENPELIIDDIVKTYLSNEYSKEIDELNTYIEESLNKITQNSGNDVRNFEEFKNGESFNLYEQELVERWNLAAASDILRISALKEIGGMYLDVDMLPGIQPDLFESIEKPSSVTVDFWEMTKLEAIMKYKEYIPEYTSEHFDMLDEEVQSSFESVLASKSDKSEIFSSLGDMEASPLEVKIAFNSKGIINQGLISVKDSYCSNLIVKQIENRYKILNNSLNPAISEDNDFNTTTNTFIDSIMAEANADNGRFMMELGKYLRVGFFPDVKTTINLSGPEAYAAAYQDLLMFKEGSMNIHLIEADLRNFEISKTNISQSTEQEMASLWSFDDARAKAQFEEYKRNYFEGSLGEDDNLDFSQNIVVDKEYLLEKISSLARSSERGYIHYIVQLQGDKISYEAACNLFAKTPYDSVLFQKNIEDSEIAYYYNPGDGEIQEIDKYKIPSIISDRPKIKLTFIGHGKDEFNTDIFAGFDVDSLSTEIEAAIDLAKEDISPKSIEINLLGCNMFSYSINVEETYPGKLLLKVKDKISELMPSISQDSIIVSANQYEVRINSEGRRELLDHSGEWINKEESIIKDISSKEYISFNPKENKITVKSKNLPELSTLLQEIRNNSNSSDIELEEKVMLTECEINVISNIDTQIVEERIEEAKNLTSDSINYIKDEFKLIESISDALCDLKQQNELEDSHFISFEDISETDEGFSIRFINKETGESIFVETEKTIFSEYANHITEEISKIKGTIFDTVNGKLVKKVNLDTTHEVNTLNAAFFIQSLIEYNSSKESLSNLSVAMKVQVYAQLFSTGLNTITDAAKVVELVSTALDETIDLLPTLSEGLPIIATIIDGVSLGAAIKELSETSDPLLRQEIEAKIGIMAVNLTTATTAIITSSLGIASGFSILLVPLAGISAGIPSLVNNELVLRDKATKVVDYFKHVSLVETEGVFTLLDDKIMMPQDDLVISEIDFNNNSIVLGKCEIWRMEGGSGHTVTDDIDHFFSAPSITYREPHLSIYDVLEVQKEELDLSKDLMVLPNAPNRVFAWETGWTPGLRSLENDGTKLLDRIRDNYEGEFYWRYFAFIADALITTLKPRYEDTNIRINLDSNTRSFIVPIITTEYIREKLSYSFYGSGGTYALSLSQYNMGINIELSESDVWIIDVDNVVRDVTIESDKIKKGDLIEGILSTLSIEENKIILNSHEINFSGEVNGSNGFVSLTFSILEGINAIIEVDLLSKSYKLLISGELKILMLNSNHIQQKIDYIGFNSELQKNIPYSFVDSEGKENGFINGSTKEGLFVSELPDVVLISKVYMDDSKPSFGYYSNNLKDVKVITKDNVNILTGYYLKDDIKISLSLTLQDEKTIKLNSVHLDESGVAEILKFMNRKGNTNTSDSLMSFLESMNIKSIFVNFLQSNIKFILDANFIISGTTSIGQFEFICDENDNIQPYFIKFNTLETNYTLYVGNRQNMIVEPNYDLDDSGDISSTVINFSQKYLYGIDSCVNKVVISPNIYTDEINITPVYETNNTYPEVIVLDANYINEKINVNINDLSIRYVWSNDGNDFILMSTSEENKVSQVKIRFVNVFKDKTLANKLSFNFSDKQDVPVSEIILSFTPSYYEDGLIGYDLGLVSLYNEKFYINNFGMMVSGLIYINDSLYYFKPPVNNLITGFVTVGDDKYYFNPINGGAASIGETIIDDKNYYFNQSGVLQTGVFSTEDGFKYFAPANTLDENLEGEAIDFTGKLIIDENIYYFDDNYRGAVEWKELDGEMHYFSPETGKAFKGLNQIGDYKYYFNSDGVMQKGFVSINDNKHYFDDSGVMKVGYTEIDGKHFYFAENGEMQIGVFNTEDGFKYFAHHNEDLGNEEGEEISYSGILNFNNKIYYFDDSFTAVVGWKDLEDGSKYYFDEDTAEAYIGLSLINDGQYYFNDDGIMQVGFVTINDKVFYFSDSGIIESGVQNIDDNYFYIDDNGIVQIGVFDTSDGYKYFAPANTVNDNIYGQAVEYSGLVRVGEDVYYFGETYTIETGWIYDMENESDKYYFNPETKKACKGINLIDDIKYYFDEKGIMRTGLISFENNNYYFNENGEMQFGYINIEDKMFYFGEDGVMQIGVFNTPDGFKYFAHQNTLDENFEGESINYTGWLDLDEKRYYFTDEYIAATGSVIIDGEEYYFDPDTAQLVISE

On to “CNNNNNNACCGCNGCANGACNNNAGCGGCAGNCGNGNGNG [5566-77]”, for which the Kd (in general, the concentration at which binding is half-saturated) was determined as 0.23 nM.
